Assay: High throughput cellobiose assay: fold improvement in cellobiase activity of CelA variants over a control enzyme (Tables 2A-2D, 3, 5, 6, 7)
Assay type: biochemical
Conditions: 3.3 g/l cellobiose, 55° C. and pH 6.0

Molecule	Fold improvement over Control Variant No. 5 from Table 2A
89 (protein) STAIAQEGAAPAAILHPEKWPRPATQRLIDPAVEKRVDALLKQLSVEEKVGQVIQGDIGTITPEDLRKYPLGSILAGGDSGPNGDDRAPPKEWLDLADAFYRVSLEKRPGHTPIPVLFGIDAVHGHGNIGSATIFPHNIALGATRDPELLRRIGEVTAVEMAATGIDWTFAPALSVVRDDRWGRTYEGFSEDPEIVASYSAAIVEGVQGKFGSKDFMAVGRIVASAKHFLADGGTDQGRDQGDARISEDELIRIHNAGYPPAIDAGVLTVMASFSSWQGIKHHGHKQLLTDVLKGQMGFNGFIVGDWNAHDQVPGCTKFNCPTSLIAGLDMYMAADSWKQLYENTLAQVKDGTIPMARLDDAVRRILRVKVLAGLFEKPAPKDRPGLPGLETLGSPEHRAVGREAVRKSLVLLKNDKGTLPLSPKARVLVAGDGADNIGKQSGGWTISWQGTGNRNDEFPGATSILGGIRDAVADAGGSVEFDVAGQYKTKPDVAIVVFGEEPYAEFQGDVETLEYQPDQKQDLALLKKLKDQGIPVVAVFLSGRPMWVNPELNASDAFVAAWLPGTEGGGVADVLFTDKAGKVQHDFAGKLSYSWPRTAAQTTVNRGDADYNPLFAYGYGLTYKDKSKVGTLPEESGVPAEARQNAGIYFRAGALRLPGRFL	++ (++ = 1.1 to 6 fold improvement over control Variant No. 2)
97 (protein) STAIAQEGAAPAAILHPEKWPRPATQRLIDPAVEKRVDALLKQLSVEEKVGQVIQGDIGTITPEDLRKYPLGSILAGGNSGPNGDDRAPPKEWLDLADAFYRVSLEKRPGHTPIPVLFGIDAVHGHGNIGSATIFPHNIALGMTRDPELLRRIGEVTAVEMAATGIDWTFAPALSVVRDDRWGRTYEGFSEDPEIVAAYSAAIVEGVQGKYGSKDFMAPGRIVASAKHFLADGGTDQGRDQGDARISEDELIRIHNAGYPPAIDAGVLTVMASFSSWQGIKHHGHKQLLTDVLKGQMGFNGFIVGDWNAHDQVPGCTKFNCPTSLIAGLDMYMAADSWKQLYENTLAQVKDGTIPMARLDDAVRRILRVKVLAGLFEKPAPKDRPGLPGLETLGSPEHRAVGREAVRKSLVLLKNDKGTLPLSPKARVLVAGDGADNIGKQSGGWTISWQGTGNRNDEFPGATSILGGIRDAVADAGGSVEFDVAGQYKTKPDVAIVVFGEEPYAEFQGDVETLEYQPDQKQDLALLKKLKDQGIPVVAVFLSGRPMWVNPELNASDAFVAAWLPGTEGGGVADVLFTDKAGKVQHDFAGKLSYSWPRTAAQTTVNRGDADYNPLFAYGYGLTYKDKSKVGTLPEESGVPAAPRQNAGIYFRAGALRLPGRFL	+++ (+++ = 6 to 13 fold improvement over control Variant No. 2)
96 (protein) STAIAQEGAAPAAILHPEKWPRPATQRLIDPAVEKRVDALLKQLSVEEKVGQVIQGDIGTITPEDLRKYPLGSILAGGNSGPNGDDRAPPKEWLDLADAFYRVSLEKRPGHTPIPVLFGIDAVHGHGNIGSATIFPHNIALGMTRDPELLRRIGEVTAEEMAATGIDWTFAPALSVVRDDRWGRTYEGFSEDPEIVAAYSAAIVEGVQGKYGSKDFMAPGRIVASAKHFLADGGTDQGRDQGDARISEDELIRIHNAGYPPAIDAGVLTVMASFSSWQGIKHHGHKQLLTDVLKGQMGFNGFIVGDWNAHDQVPGCTKFNCPTSLIAGLDMYMAADSWKQLYENTLAQVKDGTIPMARLDDAVRRILRVKVLAGLFEKPAPKDRPGLPGLETLGSPEHRAVGREAVRKSLVLLKNDKGTLPLSPKARVLVAGDGADNIGKQSGGWTISWQGTGNRNDEFPGATSILGGIRDAVADAGGSVEFDVAGQYKTKPDVAIVVFGEEPYAEFQGDVETLEYQPDQKQDLALLKKLKDQGIPVVAVFLSGRPMWVNPELNASDAFVAAWLPGTEGGGVADVLFTDKAGKVQHDFAGKLSYSWPRTAAQTTVNRGDADYNPLFAYGYGLTYKDKSKVGTLPEESGVPAEARQNAGIYFRAGALRLPGRFL	++ (++ = 1.1 to 6 fold improvement over control Variant No. 2)
91 (protein) STAIAQEGAAPAAILHPEKWPRPATQRLIDPAVEKRVDALLKQLSVEEKVGQVIQGDIGTITPEDLRKYPLGSILAGGDSGPNGDDRAPPKEWLDLADAFYRVSLEKRPGHTPIPVLFGIDAVHGHGNIGSATIFPHNIALGMTRDPELLRRIGEVTAVEMAATGIDWTFAPALSVVRDDRWGRTYEGFSEDPEIVAAYSAAIVEGVQGKFGSKDFMAPGRIVASAKHFLADGGTDQGRDQGDARISEDELIRIHNAGYPPAIDAGVLTVMASFSSWQGIKHHGHKQLLTDVLKGQMGFNGFIVGDWNAHDQVPGCTKFNCPTSLIAGLDMYMAADSWKQLYENTLAQVKDGTIPMARLDDAVRRILRVKVLAGLFEKPAPKDRPGLPGLETLGSPEHRAVGREAVRKSLVLLKNDKGTLPLSPKARVLVAGDGADNIGKQSGGWTISWQGTGNRNDEFPGATSILGGIRDAVADAGGSVEFDVAGQYKTKPDVAIVVFGEEPYAEFQGDVETLEYQPDQKQDLALLKKLKDQGIPVVAVFLSGRPMWVNPELNASDAFVAAWLPGTEGGGVADVLFTDKAGKVQHDFAGKLSYSWPRTAAQTTVNRGDADYNPLFAYGYGLTYKDKSKVGTLPEESGVPAEARQNAGIYFRAGALRLPGRFL	+++ (+++ = 6 to 13 fold improvement over control Variant No. 2)
90 (protein) STAIAQEGAAPAAILHPEKWPRPATQRLIDPAVEKRVDALLKQLSVEEKVGQVIQGDIGTITPEDLRKYPLGSILAGGDSGPNGDDRAPPKEWLDLADAFYRVSLEKRPGHTPIPVLFGIDAVHGHGNIGSATIFPHNIALGATRDPELLRRIGEVTAVEMAATGIDWTFAPALSVVRDDRWGRTYEGFSEDPEIVAAYSAAIVEGVQGKYGSKDFMAPGRIVASAKHFLADGGTDQGRDQGDARISEDELIRIHNAGYPPAIDAGVLTVMASFSSWQGIKHHGHKQLLTDVLKGQMGFNGFIVGDWNAHDQVPGCTKFNCPTSLIAGLDMYMAADSWKQLYENTLAQVKDGTIPMARLDDAVRRILRVKVLAGLFEKPAPKDRPGLPGLETLGSPEHRAVGREAVRKSLVLLKNDKGTLPLSPKARVLVAGDGADNIGKQSGGWTISWQGTGNRNDEFPGATSILGGIRDAVADAGGSVEFDVAGQYKTKPDVAIVVFGEEPYAEFQGDVETLEYQPDQKQDLALLKKLKDQGIPVVAVFLSGRPMWVNPELNASDAFVAAWLPGTEGGGVADVLFTDKAGKVQHDFAGKLSYSWPRTAAQTTVNRGDADYNPLFAYGYGLTYKDKSKVGTLPEESGVPAEARQNAGIYFRAGALRLPGRFL	++ (++ = 1.1 to 6 fold improvement over control Variant No. 2)
93 (protein) STAIAQEGAAPAAILHPEKWPRPATQRLIDPAVEKRVDALLKQLSVEEKVGQVIQGDIGTITPEDLRKYPLGSILAGGNSGPNGDDRAPPKEWLDLADAFYRVSLEKRPGHTPIPVLFGIDAVHGHGNIGSATIFPHNIALGATRDPELLRRIGEVTAVEMAATGIDWTFAPALSVVRDDRWGRTYEGFSEDPEIVAAYSAAIVEGVQGKYGSKDFMAPGRIVASAKHFLADGGTDQGRDQGDARISEDELIRIHNAGYPPAIDAGVLTVMASFSSWQGIKHHGHKQLLTDVLKGQMGFNGFIVGDWNAHDQVPGCTKFNCPTSLIAGLDMYMAADSWKQLYENTLAQVKDGTIPMARLDDAVRRILRVKVLAGLFEKPAPKDRPGLPGLETLGSPEHRAVGREAVRKSLVLLKNDKGTLPLSPKARVLVAGDGADNIGKQSGGWTISWQGTGNRNDEFPGATSILGGIRDAVADAGGSVEFDVAGQYKTKPDVAIVVFGEEPYAEFQGDVETLEYQPDQKQDLALLKKLKDQGIPVVAVFLSGRPMWVNPELNASDAFVAAWLPGTEGGGVADVLFTDKAGKVQHDFAGKLSYSWPRTAAQTTVNRGDADYNPLFAYGYGLTYKDKSKVGTLPEESGVPAEARQNAGIYFRAGALRLPGRFL	++ (++ = 1.1 to 6 fold improvement over control Variant No. 2)
95 (protein) STAIAQEGAAPAAILHPEKWPRPATQRLIDPAVEKRVDALLKQLSVEEKVGQVIQGDIGTITPEDLRKYPLGSILAGGNSGPNGDDRAPPKEWLDLADAFYRVSLEKRPGHTPIPVLFGIDAVHGHGNIGSATIFPHNIALGATRDPELLRRIGEVTAQEMAATGIDWTFAPALSVVRDDRWGRTYEGFSEDPEIVASYSAAIVEGVQGKYGSKDFMAPGRIVASAKHFLADGGTDQGRDQGDARISEDELIRIHNAGYPPAIDAGVLTVMASFSSWQGIKHHGHKQLLTDVLKGQMGFNGFIVGDWNAHDQVPGCTKFNCPTSLIAGLDMYMAADSWKQLYENTLAQVKDGTIPMARLDDAVRRILRVKVLAGLFEKPAPKDRPGLPGLETLGSPEHRAVGREAVRKSLVLLKNDKGTLPLSPKARVLVAGDGADNIGKQSGGWTISWQGTGNRNDEFPGATSILGGIRDAVADAGGSVEFDVAGQYKTKPDVAIVVFGEEPYAEFQGDVETLEYQPDQKQDLALLKKLKDQGIPVVAVFLSGRPMWVNPELNASDAFVAAWLPGTEGGGVADVLFTDKAGKVQHDFAGKLSYSWPRTAAQTTVNRGDADYNPLFAYGYGLTYKDKSKVGTLPEESGVPAEARQNAGIYFRAGALRLPGRFL	++ (++ = 1.1 to 6 fold improvement over control Variant No. 2)
92 (protein) STAIAQEGAAPAAILHPEKWPRPATQRLIDPAVEKRVDALLKQLSVEEKVGQVIQGDIGTITPEDLRKYPLGSILAGGNSGPNGDDRAPPKEWLDLADAFYRVSLEKRPGHTPIPVLFGIDAVHGHGNIGSATIFPHNIALGMTRDPELLRRIGEVTAVEMAATGIDWTFAPALSVVRDDRWGRTYEGFSEDPEIVAAYSAAIVEGVQGKFGSKDFMAPGRIVASAKHFLADGGTDQGRDQGDARISEDELIRIHNAGYPPAIDAGVLTVMASFSSWQGIKHHGHKQLLTDVLKGQMGFNGFIVGDWNAHDQVPGCTKFNCPTSLIAGLDMYMAADSWKQLYENTLAQVKDGTIPMARLDDAVRRILRVKVLAGLFEKPAPKDRPGLPGLETLGSPEHRAVGREAVRKSLVLLKNDKGTLPLSPKARVLVAGDGADNIGKQSGGWTISWQGTGNRNDEFPGATSILGGIRDAVADAGGSVEFDVAGQYKTKPDVAIVVFGEEPYAEFQGDVETLEYQPDQKQDLALLKKLKDQGIPVVAVFLSGRPMWVNPELNASDAFVAAWLPGTEGGGVADVLFTDKAGKVQHDFAGKLSYSWPRTAAQTTVNRGDADYNPLFAYGYGLTYKDKSKVGTLPEESGVPAEARQNAGIYFRAGALRLPGRFL	++ (++ = 1.1 to 6 fold improvement over control Variant No. 2)

Source: patent US8357523B2, “Beta-glucosidase variant enzymes and related polynucleotides” (Codexis, Inc., priority 2009, dated 2013)
